Results: publication PMC314469, “Protein Interaction Networks by Proteome Peptide Scanning” (PLoS Biology, 2004)

T1: amphyphisin SH3 (AMPH_HUMAN), P49418
T1 chain: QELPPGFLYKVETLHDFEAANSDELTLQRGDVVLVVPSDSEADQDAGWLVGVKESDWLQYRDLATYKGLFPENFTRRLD


Assays:
[1] = molecular target: T1, amphyphisin SH3 (AMPH_HUMAN), P49418; test: SPOT array
[2] = molecular target: endophilin SH3 (SH3G2_HUMAN), Q99962; test: SPOT array

| Binder | normalised SPOT signal, Boehringer light units (BLU); mean over the file's lines of this peptide [1] | normalised SPOT signal, Boehringer light units (BLU); mean over the file's lines of this peptide [2] |
| --- | --- | --- |
| RYLGITRPHKMLTT [Q99412 18-31] | 102 | 231 |
| RYLAISRPLRARVL [O43193 136-149] | 1320 | 943 |
| AVQFLRRPKTITRV [O95473 15-28] | 15.3 | 117 |
| RVLHLRRPGGPPHV [Q96DQ6 175-188] | 21.6 | 55.3 |
| RSQTPERPAKKIRE [Q9Y2N3 421-434] | 283 | 587 |
| AVWSPRRPTATRDP [Q8WU34 71-84] | 36.2 | 97.9 |
| RSRVPVRPPQQYSD [Q92560 382-396] | 133 | 831 |
| RTPAPRRPLQRRRP [Q9GZW5 220-233] | 789 | 12000 |
| SAPPPPRPPEEPAP [Q96BQ9 4-18] | 85.5 | 65.5 |
| SAPPPQRPFRVSDH [Q9UHD4 30-43] | 4530 | 5270 |
| RVEELSRPKRFYLE [Q9P2T0 193-206] | 225 | 210 |
| SAVVLKRPEILTDE [Q06055 26-39] | 42.7 | 38.4 |
| RYLILKRPGFQEHD [Q9NP17 122-135] | 23.9 | 228 |
| RVPIPPRPTRPHVQ [Q07912 741-754] | 9630 | 19700 |
| RVLSLLRPWRPLRA [Q9NV38 3-16] | 1430 | 366 |
| RVKYIKRPGAVLEA [O00763 939-952] | 27.1 | 36.2 |
| RSRSPGRPPKSARR [Q14739 82-96] | 154 | 3690 |
| SAGRPKRPHARRAL [Q14764 501-514] | 24.8 | 702 |
| RSRSLHRPAKTSEL [O95996 1839-1852] | 170 | 187 |
| SAKELRRPPPRSPQ [Q9NPN8 118-131] | 33.8 | 116 |
| RSSGPERPPHGLPL [Q9NPP7 72-86] | 39.9 | 752 |

| Binder | normalised SPOT signal, Boehringer light units (BLU); mean over the file's lines of this peptide [1] | normalised SPOT signal, Boehringer light units (BLU); mean over the file's lines of this peptide [2] |
| --- | --- | --- |
| SAPSPARPARTQGP [Q9NPI5 198-211] | 4310 | 4590 |
| RTEGFWRPLRGVNV [Q9NYZ2 96-109] | 952 | 107 |
| SSFIPKRPIPTIKD [Q12882 910-923] | 17.6 | 514 |
| RTPTPDRPPRSAWG [Q9H0S3 22-35] | 2030 | 395 |
| RVSWIRRPPGKALE [P01814 35-48] | 15 | 326 |
| RWKEPKRPRPLKLS [Q92536 412-425] | 56.9 | 419 |
| SASEFDRPLRPIVV [O76074 102-115] | 131 | 54 |
| AVSAPKRPRVAPLQ [Q92817 837-850] | 59 | 240 |
| RTKRFKRPQFSPTG [Q96CC9 51-64] | 33.7 | 12.5 |
| SAPGPRRPAPALLA [Q96DL6 316-329] | 412 | 3420 |
| SAHTPGRPPRVTKD [Q9UGB8 794-807] | 1950 | 268 |
| AVPPPSRPQRLSSL [Q9NU00 50-63] | 15600 | 7470 |
| RVPIPPRPVKPDYR [Q9UD05 286-299] | 646 | 6030 |
| RTLGLRRPVHSSSI [Q9P1Y6 400-413] | 20.6 | 49.2 |
| SALRPKRPETPKQT [Q9UIG2 1726-1739] | 588 | 723 |
| RVIGLLRPLKDVTV [Q10466 5697-5710] | 205 | 261 |
| SAGKFKRPIIAGME [P21453 335-348] | 42.5 | 46.1 |
| RYWAISRPFRYKRK [P21918 138-151] | 1070 | 417 |
| SASGIKRPMASEVP [Q99754 28-41] | 17.6 | 81.2 |
| RVHRLPRPLKQRML [Q9UQ05 500-513] | 165 | 121 |
| RSWWPQRPGRWLSR [Q9NRK9 487-500] | 3180 | 558 |
